This note sets out measurements from PMC13466322, “Immunoglobulin Superfamily Protein BTNL9 Functions as a Non-Canonical Transcriptional Regulator to Suppress NSCLC Through Cell Cycle and p53 Pathways” (International Journal of Molecular Sciences, 2026).

Broadly, the stoichiometry N is the number of molecules, sites or subunits per partner or assembly.

This data set deals with the molecule itself. In words: native gel or EMSA; lysates of A549 and NCI-H460 cells in RIPA buffer; non-reducing LDS sample buffer; NativePAGE Bis-Tris 3-12% gel, run 1.5 h; Western blot; interpreted qualitatively. Background: In EMSA bound probe runs differently from free probe, usually more slowly.

B1: Butyrophilin-like 9 (BTNL9), wild type, FLAG-tagged or AM-tagged (natural protein, human, UniProt Q6UXG8-1 35-535, looked up)
chain: SSEVKVLGPEYPILALVGEEVEFPCHLWPQLDAQQMEIRWFRSQTFNVVHLYQEQQELPGRQMPAFRNRTKLVKDDIAYGSVVLQLHSIIPSDKGTYGCRFHSDNFSGEALWELEVAGLGSDPHLSLEGFKEGGIQLRLRSSGWYPKPKVQWRDHQGQCLPPEFEAIVWDAQDLFSLETSVVVRAGALSNVSVSIQNLLLSQKKELVVQIADVFVPGASAWKSAFVATLPLLLVLAALALGVLRKQRRSREKLRKQAEKRQEKLTAELEKLQTELDWRRAEGQAEWRAAQKYAVDVTLDPASAHPSLEVSEDGKSVSSRGAPPGPAPGHPQRFSEQTCALSLERFSAGRHYWEVHVGRRSRWFLGACLAAVPRAGPARLSPAAGYWVLGLWNGCEYFVLAPHRVALTLRVPPRRLGVFLDYEAGELSFFNVSDGSHIFTFHDTFSGALCAYFRPRAHDGGEHPDPLTICPLPVRGTGVPEENDSDTWLQPYEPADPALDWW
notes: bZIP domain annotated at residues 281-317; Two differently tagged copies of the same wild-type protein (FLAG copy as bait, AM-tag copy as prey) are written as one molecule; Each copy carries only one of the two tags; also called WT; BTNL9-FLAG; source: A549 and NCI-H460 cells, lentiviral infection, in lysate
Take B1: the “stoichiometry N” value turned out to be 2.
